Data set [1] can be described thus: physchem. It counts as physicochemical. The conditions noted are these: pH 7.4. The method in brief:
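HPLC-purified 99mTc-labeled peptides were shaken 2 min at room temperature between 1 mL n-octanol and 1 mL PBS (0.025 M, pH 7.4), then centrifuged to separate the phases. Each phase was γ-counted. logD was derived as log10 of the background-corrected octanol/buffer cpm ratio.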

The nature of data set [2]: in vitro. It counts as in vitro ADME. The following applies: rat, serum. The method in brief:
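^99mTc tracer incubated in fresh rat serum at 37 °C for 1 h, proteins precipitated with 10% trichloroacetic acid and centrifuged. Binding % = precipitate counts / (precipitate + supernatant counts) × 100; run in triplicate.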

A short description of data set [3]: Blood clearance studies. It counts as in vivo. The conditions noted are these: mouse, i.v. tail vein. The procedure:
^99mTc-labeled HYNIC/DOMA conjugated peptide analogs (1 mCi, 0.2 mL) were administered to well-hydrated mouse (n = 3) through tail vein and blood samples (20 μL each) were collected at preset time intervals (2, 5, 15, 30, 60, 90, and 120 min) in the tube. Each sample was weighed accurately, and associated radioactivity was counted in a gamma counter. The percentage injected activities per gram (%IA/g) in each blood sample at each time were determined, and the data were plotted as a function of the time interval to obtain the blood clearance curve of the radiopharmaceuticals.

SMILES strings stand for the structures. Where a SMILES comes first, the peptide text is derived from it.

One may read the logD as the decadic logarithm of the distribution of all forms, ionised or not, between an organic phase and buffer at a given pH. The low end stands for a more hydrophilic compound, the high end for a more lipophilic compound. A word on the fraction unbound: it is the share of the substance not bound to proteins or other matrix. A lower fraction unbound goes with little free substance. With `CCCC[C@H](NC(=O)[C@@H](Cc1ccc(O)cc1)NC(=O)[C@H](Cc1c[nH]cn1)NC(=O)[C@H]1CCCN1C(=O)[C@@H](NC(=O)[C@H](C)NC(=O)[C@H](Cc1c[nH]c2ccccc12)NC(=O)[C@H](CCC(N)=O)NC(=O)CCCNC(=O)CN1CCNCCNCCNCC1)C(C)C)C(N)=O` [99mTc-BN4, ^99mTc-DOMA-GABA-[Pro^11Tyr^13Nle^14]-BN(7-14)NH2, metal not drawn] (HELM PEPTIDE1{[O=C(CN1CCNCCNCCNCC1)[*:2]].[O=C(CCCN[*:1])[*:2]].Q.W.A.V.[dP].H.[dY].[Nle].[am]}$$$$V2.0), in data set [1], the logD was -2.7. In data set [2], the fraction unbound at 1 h is 0.809. Moreover, in data set [3], the t1/2 in blood stood at 30 min.

For the origin of these results see PMC6423188, “HYNIC and DOMA conjugated radiolabeled bombesin analogs as receptor-targeted probes for scintigraphic detection of breast tumor” (EJNMMI Research, 2019).
